Key:
Assay in all cases: flow cytometry, staining of IEs
[1] = target: erythrocytes infected with P. falciparum field isolate 10975
[2] = target: erythrocytes infected with P. falciparum field isolate 9605
[3] = target: erythrocytes infected with P. falciparum field isolate 10936
[4] = target: erythrocytes infected with P. falciparum field isolate 9215
[5] = target: erythrocytes infected with P. falciparum field isolate 9106
[6] = target: erythrocytes infected with P. falciparum field isolate 11014
[7] = target: erythrocytes infected with P. falciparum field isolate 11019
[8] = target: erythrocytes infected with P. falciparum field isolate 9775

Row | Binder | % parasite recognition [1] | % parasite recognition [2] | % parasite recognition [3] | % parasite recognition [4] | % parasite recognition [5] | % parasite recognition [6] | % parasite recognition [7] | % parasite recognition [8]
1 | MGD41 (antibody) VH: EVQLVESGPGLVKPSGTLSVTCTISGGSINTDKWWTWVRQPPGKGLEWVGEVLHTGSTNYNPSLRGRVTISVDKSKNQFSLRLSSVTAADTAVYYCATISTLRPQRDIEDLPRPSLSAEPGTVVPLGSHVTFVCRGPVGVQTFRLERESRSTYNDTEDVSQPSPFESEARFRIDSVSEGNAGPYRCIYYKSPKWSDQSDYVELLVKGEDVTWAPPQSQLAPRACPQGELRTSTDIFSMNVWGKGTTVTVSS VL: AIRMTQSPSSLSAFTGDRVTISCRASQDIGNYLDWYHQKPGRAPKLLIHGASTLLTGVPSRFSGSGSGTDFTLNITCLQSGDFGIYYCLQYYSSPPAFGPGTRLEIK | 7.3% | 17.2% | 6.1% | 14.7% | 3.8% | 6.6% | 6.8% | 8.6%
2 | MGD56 (antibody) VH: QVQLQESGPGLVKPSGTLSLTCAVSGGSITTNNWWSWVRQTPGKGLEWIGEIFRSGTTNYNPSLKSRVAISLDKSKNQFSLKLTSVTAADTAVYYCATASPFKSQRDTKDLPRPSLSAEPGTVIPLGSHVTFVCRGPVGVQTFRLQRESRSLYNDTEDVSHPSPSESEARFRIDSVSEGNAGPYRCVYYKSSKWSEESDCLELLVKTEDVTWARPQPQLDPRACPRGDLRISTDVYYMDVWGKGTTVTVSS VL: AIRMTQSPSSLSASTGDRVTITCRASQAITSYLAWYRQKPGKAPDLLIYNASTLQSGVPSRFSASGSGTDFALTITGLQSEDFVIYFCQHYYTYPPAFGQGTRLEIK | 6.7% | 17.3% | 2.4% | 12% | 3.3% | 9.5% | 4.3% | 6.6%
3 | MGC4 (antibody) VH: EVQLVESGGGLVQPGGSLRLSCEGSGFNSRSYWMTWVRQAPGKGLEWVASINQDGTEKNYVDSVKGRFTISRDSAKNSLYLQMSSLRADDTAVYYCARDRFCGGESHLHGEEDLPRPSISAEPDTVIPLGSHVTFVCRGPVGVHTFRLERGWRYNDTEDVSQAGPSESEARFRIDSVREGNAGLYRCIYYIAPKWSEQSDYLELRVKGGDVTWALLTYCGGDGEESDYPMDVWGKGTTVTVSS VL: QTVVTQEPSLTVSPGGTVTLTCASSTGPVTSAYYPNWFQQKPGQAPRSLIYSINKKHSWTPARFSGSLLGGKAALTLSGVQPEDEADYYCLLSCGGAQPWVFGGGTKLTVQ | 6.7% | 22.2% | 2.3% | 21.7% | 6.7% | 3.6% | 31.1% | 6.1%
4 | MGD47 (antibody) VH: QVRLQESGPGLVKPSGTLSLTCTVSGGSISGYKWWSWVRQAPGKGLEWIGQVYDDGDTNYNPDLKGRVALSVDKSKSRFSLSLASVTAADTAIYFCATISPLRPQSDTGDLPRPSISAEPGTAIPLGSQVTFVCRGPIGVQTFRLERESRALYNDSEDVSQVSPSASEARFRIDSVSEGNAGPYRCIYYKARRWSDQSDYLELLVKGEDVTWALPQSQLAPRACPQEDLNISTDIFSTNVWGKGTTVTVSS VL: AIRMTQSPASLSASVGDRVTITCRTSQDVGNYLDWYQQKPGKAPKLLIHGASTLQAGVPSRFNGSGSGTDFTLGISCVQSGDFAIYYCQQYYTSPPVFGQGTRLEIK | 11.2% | 28.7% | 11.3% | 22.3% | 10.7% | 10.2% | 24.6% | 14.4%
5 | MGD34 (antibody) VH: EVQLVESGPGLMKTSGTLSLTCAVSGDYVNTNRRWSWVRQAPGKGLEWIGEVHQSGRTNYNPSLKSRVTISVDKSKNQFSLKVDSVTAADTAVYYCARASPLKSQRDTEDLPRPSISAEPGTVIPLGSHVTFVCRGPVGVQTFRLERERNYLYSDTEDVSQTSPSESEARFRIDSVNAGNAGLFRCIYYKSRKWSEQSDYLELVVKGEDVTWALSQSQVDPRACPQGELPISTDIYYVDVWGNGTTFTVSS VL: AIRMTQSPSSLSASPGDKVSITCRASQHINDSLAWFQQRPGKAPKLLIYGASNLHSGVPSRFSGTGSGTDFTLTITGLQSEDFATYFCQQCNCFPPDFGQGTRLEIK | 11.2% | 28.4% | 8.1% | 35.7% | 5% | 13% | 46.6% | 16%
6 | MGD39 (antibody) VH: QVRLQESGPGLVKPSGTLSLTCTVSGGSISAYRWWSWVRQAPGKGLEWIGQVYNDGNTNYNPSLKGRVAMSVDKSKNRFSLRLASVTAADTAVYYCATISPLRPQSDTDDLPRPSISAEPGTVIPLGSHVTFVCRGPIGVQTFRLERERRSLYSDTEDVSQVSPFASEARFRIDSVSEGNAGPYRCIYYKDRKWSDQSDYLELLVKGEDVTWALPQSQLAPRACPQEELNISTDIFSMNVWGKGTTVTVSS VL: AIRMTQSPASLSASIGDRVTITCRTSHDVGNYLDWYQQKPGKAPKLLIHGASTLQTGVPSRFSGSGAGTDFTLNITCLQSGDFAMYYCQQYYSSPPGFGQGTRLEIK | 14.1% | 31.7% | 10.5% | 37.4% | 13.7% | 11.5% | 43% | 15%
7 | MGD55 (antibody) VH: QVQLQESGPGLVKPSGTLSLTCTVSGGSISAYKWWSWVRQAPGKGLEWIGQVYHNGNTNYNPSLKGRVAMSVDKSKNRFSLRLASVTAADTAVYYCATISPLRPQSDTDDLPRPSISAEPGTVIPLGSHVTFVCRGPIGVQTFRLERESRSLYSDTEDVSQVSPFASEARFRIDSVSEGNAGPYRCIYYKDRKWSDQSDYLELLVKGEDVTWALPQSQLAPRACPQEELNISTDIFSMNVWGKGTTVTVSS VL: AIRMTQSPASLSASIGDRVTITCRTSQDVGNYLDWYQQKPGKAPKLLIHGASTLQTGVPSRFSGSGAGTDFTLNITCLQSGDFAMYYCQQYYSSPPGFGQGTRLEIK | 15.6% | 37.2% | 13.3% | 38.8% | 14.3% | 14.7% | 33.1% | 19.4%
8 | MGC7 (antibody) VH: EVQLVESGGDLVQPGGSLRLSCAASGFTFRNYWMSWVRQTPGKGLEWVANIRQDGSEKYYVDSVKGRFTISRDNAKNLLYLQMNSLRAEDTAVYYCVRDKFCSDENHMHVADDLPRPSISPEPGTVIPLGSHVTFVCRGPVGVQTFRLEKDRRSTYNDTEDVSQPSPSESEARFRIDSVTEGNAGLYRCVYYKPPKWSDQSDFLELLVKGEDVTWALFPHCGADGEDSDYYMDVWGKGTTVTVSS VL: DIQMTQSPSSVSASVGDRVTITCRASQGLSTWLAWYQQKPGKAPKILIYAASSLQSGVPSRFSGSGSGTDFTLTISSLQPEDFATYYCQQANSFPLTFGGGTKVEIK | 0.7% | 22.8% | 1.7% | 19.3% | 6.9% | 2.9% | 13.8% | 4.6%

Reference: patent US20180186897A1 (INSTITUTE FOR RESEARCH IN BIOMEDICINE, published 2018)
